Reference: patent US20260297187 (published 2026)
Numbering of substitutions follows the chain as printed. Names may count otherwise. Read-outs that look alike come from different tables or passages of the source.

Legend:
CEACAM1-his [1] = target: T1, CEACAM1-his (human); experiment: BLI
T1 chain: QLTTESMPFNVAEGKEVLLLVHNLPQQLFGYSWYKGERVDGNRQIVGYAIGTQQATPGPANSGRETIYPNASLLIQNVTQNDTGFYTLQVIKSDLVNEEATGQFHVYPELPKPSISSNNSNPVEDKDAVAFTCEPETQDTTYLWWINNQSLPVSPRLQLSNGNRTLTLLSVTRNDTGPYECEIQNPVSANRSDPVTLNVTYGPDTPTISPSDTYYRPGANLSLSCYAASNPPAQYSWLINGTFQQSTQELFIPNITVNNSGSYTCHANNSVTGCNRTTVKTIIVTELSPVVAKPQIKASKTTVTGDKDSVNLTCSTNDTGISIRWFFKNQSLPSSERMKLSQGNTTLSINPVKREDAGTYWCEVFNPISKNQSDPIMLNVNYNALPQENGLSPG

CEACAM1-his [2] = target: T1, CEACAM1-his; experiment: BLI
CEACAM1 (cell surface) [3] = target: CEACAM1 (cell surface) (human); experiment: FACS, HepG2
CEACAM1 (cell surface) (human), sequence (chain, as listed by the source): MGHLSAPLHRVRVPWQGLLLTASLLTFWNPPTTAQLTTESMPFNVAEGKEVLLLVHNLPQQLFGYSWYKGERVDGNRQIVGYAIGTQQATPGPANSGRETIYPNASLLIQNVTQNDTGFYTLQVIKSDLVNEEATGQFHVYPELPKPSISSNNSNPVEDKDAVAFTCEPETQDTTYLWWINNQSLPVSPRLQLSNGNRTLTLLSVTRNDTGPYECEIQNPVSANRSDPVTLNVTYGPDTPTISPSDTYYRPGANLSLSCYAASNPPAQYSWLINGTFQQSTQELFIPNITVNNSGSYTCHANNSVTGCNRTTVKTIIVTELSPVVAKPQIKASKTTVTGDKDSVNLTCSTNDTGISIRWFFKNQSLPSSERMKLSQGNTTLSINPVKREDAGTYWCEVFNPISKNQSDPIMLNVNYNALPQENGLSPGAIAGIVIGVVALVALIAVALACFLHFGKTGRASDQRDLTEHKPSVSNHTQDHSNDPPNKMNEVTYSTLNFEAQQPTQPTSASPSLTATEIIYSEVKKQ

CEACAM1 (cell surface) [4] = target: CEACAM1 (cell surface) (human); experiment: FACS, BxPC-3
CEACAM6 = target: T2, CEACAM6 (human, UniProt P40199); experiment: BLI
T2 chain: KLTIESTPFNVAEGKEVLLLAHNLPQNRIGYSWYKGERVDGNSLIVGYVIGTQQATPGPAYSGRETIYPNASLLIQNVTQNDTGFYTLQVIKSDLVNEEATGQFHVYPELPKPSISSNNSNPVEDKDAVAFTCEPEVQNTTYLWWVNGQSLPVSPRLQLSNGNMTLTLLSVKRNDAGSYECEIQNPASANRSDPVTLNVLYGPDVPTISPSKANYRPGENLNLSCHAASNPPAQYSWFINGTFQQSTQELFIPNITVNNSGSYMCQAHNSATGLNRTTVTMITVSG

CEACAM1-his [5] = target: T1, CEACAM1-his; experiment: BLI
CEACAM1 (cell surface) [6] = target: CEACAM1 (cell surface) (human); experiment: FACS, Raji-CEACAM1
CEACAM1-his [7] = target: T1, CEACAM1-his; experiment: BLI
CEACAM1-his [8] = target: T1, CEACAM1-his; experiment: BLI
CEACAM3 = target: T3, CEACAM3 (human, UniProt P40198); experiment: BLI
T3 chain: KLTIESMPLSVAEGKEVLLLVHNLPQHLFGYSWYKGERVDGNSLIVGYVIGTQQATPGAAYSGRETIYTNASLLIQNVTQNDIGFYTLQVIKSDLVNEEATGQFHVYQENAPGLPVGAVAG

B1: h9D12.G4.H0bL7 (antibody, V domains shown)
VH: QVQLVQSGAEVKKPGASVKVSCKASGFNIKDTYMHWVRQAPGQGLEWMGRIDLASGDSKYDPKFQGRVTMTRDTSTSTVYMELSSLRSEDTAVYYCARAHFGGGNWYFDVWGQGTTVTVSS
VL: DIQLTQSPSFLSASVGDRVTITCSASSSVSYMHWYQQKPGQAPKPWIYEISKLASGVPSRFSGSGSGTEYTLTISSMQSEDFAVYYCQQWNYPLTFGQGTKLEIK
CEACAM1-his [1]
  Kd: 3.68 nM
CEACAM1-his [2]
  Kd: 3.68 nM
CEACAM1 (cell surface) [3]
  EC50: 0.0974 µg/mL
CEACAM1 (cell surface) [4]
  EC50: 0.0723 µg/mL

B2: h9D12.G4.H0aL7 (antibody, V domains shown)
VH: B1 VH with Q1E, S17T, V20I, A24V, R38Q, Q43K, M70I, R72A, S77D, V79A
VL: B1 VL
CEACAM1-his [1]
  Kd: 3.39 nM
CEACAM1-his [2]
  Kd: 3.39 nM

B3: h9D12.G4.H4L7 (antibody, V domains shown)
VH: B1 VH with M48I, R72A
VL: B1 VL
CEACAM1-his [1]
  Kd: 2.46 nM
CEACAM1-his [2]
  Kd: 2.46 nM

B4: 9D12 (antibody, V domains shown)
VH: EVQLQQSGAELVKPGASVKLSCTASGFNIKDTYMHWVKQRPEQGLEWIGRIDLASGDSKYDPKFQGKATITADTSSNTAYLQFSSLTSEDTAVYYCARAHFGGGNWYFDVWGAGTTVTVSS
VL: EIVLTQSPAITAASLGQKVTITCSASSSVSYMHWYQQKSGTSPKPWIYEISKLASGVPARFSGSGSGTSYSLTISSMEAEDAAIYYCQQWNYPLTFGAGTKLELK
CEACAM6
  binding result: no binding
CEACAM1-his [5]
  Kd: 2.9 nM

B5: 7D4 (antibody, V domains shown)
VH: EVQLQQSGAELVRPGASVKLSCTASGFNLKDTYMHWVKQRPEQGLEWIGRIDPSDGDTKYGPKFQDKTTITADTSSNTAYLQLSSLTSEDAAVYYCARAHFGGGGWYFDVWGAGTTVTVSS
VL: B4 VL with S30G, S75R, S76N
CEACAM6
  binding result: no binding
CEACAM1-his [5]
  Kd: 6.97 nM

B6: h2C10.G4.H0aL4 (antibody, V domains shown)
VH: QVQLVQSGAEVKKPGASVKVSCKASGFAFTNYLIEWVRQAPGQGLEWMGVLNPGSGATNYNEKFKGRVTMTRDTSISTAYMELSRLRSDDTAVYYCARGIYGGYFAMDYWGQGTLVTVSS
VL: DIQMTQSPSSLSASVGDRVTITCRASQDITTYLNWYQQKPGGAPKLLIYYTSRLHSGVPSRFSGSGSGTDFTLTISSLQPEDIATYYCQQGNTLPRTFGGGTKLEIK
CEACAM1-his [1]
  Kd: 1.83 nM
CEACAM1-his [2]
  Kd: 1.83 nM
CEACAM1 (cell surface) [3]
  EC50: 0.0491 µg/mL
CEACAM1 (cell surface) [4]
  EC50: 0.031 µg/mL
CEACAM1 (cell surface) [6]
  EC50: 0.0862 µg/mL

B7: h2C10.G4.H0aL2 (antibody, V domains shown)
VH: B6 VH
VL: B6 VL with P8T, F71Y
CEACAM1-his [1]
  Kd: 0.85 nM
CEACAM1-his [2]
  Kd: 0.85 nM
CEACAM1 (cell surface) [3]
  EC50: 0.0684 µg/mL
CEACAM1 (cell surface) [4]
  EC50: 0.0464 µg/mL
CEACAM1 (cell surface) [6]
  EC50: 0.0746 µg/mL

B8: h4D10.G4.H4L2 (antibody, V domains shown)
VH: QVQLVQSGAEVKKPGASVKVSCKASGYTFSSYVIHWVRQAPGQGLEWMGYFNPYNNGTNYNENFKGRVTMTADTSTSTVYMELSSLRSEDTAVYYCARYYYASGSLYFDYWGQGTTVTVSS
VL: DIQMTQSPSTLSASVGDRVTITCSASSSVSYMHWYQQKPGKAPKPLIYEISKLASGVPSRFSGSGSGTEFTLTISSLQPDDAATYYCQQWNYPLITFGGGTKVEIK
CEACAM1-his [1]
  Kd: 1.7 nM
CEACAM1-his [2]
  Kd: 1.7 nM
CEACAM1-his [7]
  Kd: 2.65 nM
CEACAM1 (cell surface) [3]
  EC50: 0.039 µg/mL
CEACAM1 (cell surface) [4]
  EC50: 0.0263 µg/mL
CEACAM1 (cell surface) [6]
  EC50: 0.0699 µg/mL

B9: h4D10.G4.H4(H35M N56Q Y100F)L2 (antibody, V domains shown)
VH: B8 VH with H35M, N56Q, Y100F
VL: B8 VL
CEACAM1-his [8]
  Kd: 0.394 nM

B10: h4D10.G4.H4(N56Q Y100F)L2(K52R) (antibody, V domains shown)
VH: B8 VH with N56Q, Y100F
VL: B8 VL with K52R
CEACAM1-his [8]
  Kd: 0.801 nM

B11: h4D10.G4.H4(N56Q Y100F)L2(S28F S51M) (antibody, V domains shown)
VH: B8 VH with N56Q, Y100F
VL: B8 VL with S28F, S51M
CEACAM1-his [8]
  Kd: 0.362 nM

B12: h4D10.G4.H4(N56Q Y100F)L2(S51M) (antibody, V domains shown)
VH: B8 VH with N56Q, Y100F
VL: B8 VL with S51M
CEACAM1-his [8]
  Kd: 0.784 nM

B13: h4D10.G4.H4(N56Q Y100F)L2(S28F S51M K52R) (antibody, V domains shown)
VH: B8 VH with N56Q, Y100F
VL: B8 VL with S28F, S51M, K52R
CEACAM1-his [8]
  Kd: 0.151 nM

B14: h4D10.G4.H4(N56Q Y100F)L2(S28F K52R) (antibody, V domains shown)
VH: B8 VH with N56Q, Y100F
VL: B8 VL with S28F, K52R
CEACAM1-his [8]
  Kd: 0.268 nM

B15: h4D10.G4.H4(N56Q Y100F)L2(S28H) (antibody, V domains shown)
VH: B8 VH with N56Q, Y100F
VL: B8 VL with S28H
CEACAM1-his [8]
  Kd: 0.956 nM

B16: h4D10.G4.H4(N56Q Y100F)L2 (antibody, V domains shown)
VH: B8 VH with N56Q, Y100F
VL: B8 VL
CEACAM1-his [1]
  Kd: 2.02 nM
CEACAM1-his [7]
  Kd: 3.31 nM
CEACAM1 (cell surface) [4]
  EC50: 0.0211 µg/mL

B17: h4D10.G4.H4(N56Q Y100F)L2(S28F) (antibody, V domains shown)
VH: B8 VH with N56Q, Y100F
VL: B8 VL with S28F
CEACAM1-his [8]
  Kd: 0.3 nM

B18: 4D10.G4 (antibody, V domains shown)
VH: EVQLQQSGPELVKPGASVKMSCKASGYTFSSYVIHWVRQKPGQGLEWIGYFNPYNNGTNYNENFKGKATLTSGKSSSTAYMELSSLTSEDSAVYYCARYYYASGSLYFDYWGQGTTLTVSS
VL: EIVLTQSPAIATASLGQKVTITCSASSSVSYMHWYQQKSGTSPKPWIYEISKLASGVPTRFSGSGSGTSYSLTISSMEAEDAAIYYCQQWNYPLITFGAGTKLELK
CEACAM1-his [5]
  Kd: 1.89 nM
CEACAM1-his [7]
  Kd: 1.82 nM

B19: 2C10 (antibody, V domains shown)
VH: QVQLQQSGAELVRPGTSVKVSCKASGFAFTNYLIEWVKQRPGQGLEWIGVLNPGSGATNYNEKFKGKATLTADKSSSTAYMQLSSLTSDDSAVYFCARGIYGGYFAMDYWGQGTSVTVSS
VL: DIQMTQTTSSLSASLGDRVTISCRASQDITTYLNWYQQRPDGTVKLLIYYTSRLHSGVPSRFSGSGSGTEYSLTISNLEQEDIATYFCQQGNTLPRTFGGGTKLEIR
CEACAM6
  binding result: no binding
CEACAM1-his [5]
  Kd: 0.955 nM
CEACAM3
  binding result: no binding
